To fix the notation:
B1: glmS ribozyme (parent)
chain: AUAAAAGCGCCAGAACUACAGAAAUGUAGUUGACGAGGAGGAGGUUUAUCGAAUUUUCGGCGGAUGCCUCCAAA

Settings in all cases: with glucosamine-6-phosphate
The variants in data set [1] derive from B1. The data set is described as follows: kcat; higher = faster cleavage; RNA array. The method in brief: (§1)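 Sequenced MiSeq chips were the platform: E. coli RNA polymerase transcribed barcoded ribozyme variants on them in situ, and a hybridised Cy3 probe tracked these at 37 °C. After glucosamine-6-phosphate (40 μM to 10 mM) in HEPES/KCl/Mg(OAc)2 buffer was flowed in, tiles were imaged over ~14 h. Signals normalised to baseline and to non-cleaving reference variants were reduced to per-tile medians and fit to one- or two-exponential decays to obtain kobs. kcat and KM were derived through weighted Michaelis–Menten fits across concentrations.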

In data set [2] the parent is B1. Kind of data set: self-cleavage kobs at 2500 uM GlcN6P; higher = faster cleavage; RNA array. The method, boiled down: as §1
The variants in data set [3] derive from B1. Kind of data set: self-cleavage kobs at 10000 uM GlcN6P; higher = faster cleavage; RNA array. The method, boiled down: as §1
In data set [4] the parent is B1. The data set is described as follows: self-cleavage kobs at 40 uM GlcN6P; higher = faster cleavage; RNA array. The method, boiled down:
as §1

In data set [5] the parent is B1. Kind of data set: self-cleavage kobs at 160 uM GlcN6P; higher = faster cleavage; RNA array. The method, boiled down: as §1
Data set [6] covers variants of B1. Kind of data set: KM; higher = weaker cofactor use; RNA array. The method, boiled down: as §1
Data set [7] covers variants of B1. Kind of data set: self-cleavage kobs at 640 uM GlcN6P; higher = faster cleavage; RNA array. The method, boiled down:
as §1

± gives the standard error. For some of these results: Fewer inactive variants are shown than the library holds.

The term kcat denotes the number of substrate molecules converted per active site and unit of time at saturation. For U30G A52U, the catalytic constant (kcat) in data set [1] was 6.83e-05 ± 9.4e-06 s⁻¹. Also, the “self-cleavage kobs at 2500 uM GlcN6P” value in data set [2] came out at 4.14e-05 ± 1.5e-05 s⁻¹. Besides, in data set [3], the “self-cleavage kobs at 10000 uM GlcN6P” value came out at 5.6e-05 ± 1e-05 s⁻¹.

As to C10U A14G C68G, in data set [1], the kcat stood at 3.32e-05 ± 9.4e-06 s⁻¹.

For the variant C50U G63A, in data set [1], the turnover number (kcat) was below 1e-05 s⁻¹. For the same variant, in data set [4], the “self-cleavage kobs at 40 uM GlcN6P” value was below 1e-05 s⁻¹. Moreover, in data set [5], the “self-cleavage kobs at 160 uM GlcN6P” value was below 1e-05 s⁻¹.

With C50U G63U, in data set [1], the kcat was determined as 1.75e-05 ± 7.2e-06 s⁻¹. For the same variant, in data set [4], the “self-cleavage kobs at 40 uM GlcN6P” value was below 1e-05 s⁻¹.

For orientation: KM means the concentration of substrate that gives half-maximal velocity. In the case of C11U C16G, the turnover number (kcat) in data set [1] turned out to be 0.000546 ± 4.2e-05 s⁻¹. Also, the KM in data set [6] came to 2850 ± 410 µM. The “self-cleavage kobs at 640 uM GlcN6P” value in data set [7] came out at 0.000104 ± 1.9e-05 s⁻¹. For the same variant, in data set [2], the “self-cleavage kobs at 2500 uM GlcN6P” value was found to be 0.000258 ± 4.8e-05 s⁻¹. In addition, the “self-cleavage kobs at 10000 uM GlcN6P” value in data set [3] worked out at 0.000423 ± 5.7e-05 s⁻¹.

With C11U C16A, the kcat in data set [1] came out at 0.000174 ± 7e-06 s⁻¹. Further, in data set [6], the KM came out at 1760 ± 190 µM. Moreover, the “self-cleavage kobs at 640 uM GlcN6P” value in data set [7] is 4.38e-05 ± 1.9e-05 s⁻¹. For the same variant, the “self-cleavage kobs at 2500 uM GlcN6P” value in data set [2] amounted to 0.000106 ± 2.2e-05 s⁻¹. Further, the “self-cleavage kobs at 10000 uM GlcN6P” value in data set [3] was determined as 0.000145 ± 2.9e-05 s⁻¹.

Take G13U A14C: the kcat in data set [1] stood at 0.00021 ± 2.8e-05 s⁻¹. For the same variant, in data set [6], the KM stood at 8960 ± 1900 µM. For the same variant, in data set [2], the “self-cleavage kobs at 2500 uM GlcN6P” value came out at 4.71e-05 ± 9.7e-06 s⁻¹. For the same variant, in data set [3], the “self-cleavage kobs at 10000 uM GlcN6P” value turned out to be 0.00011 ± 2e-05 s⁻¹.

Consider C61U C71G, for which, in data set [1], the turnover number (kcat) is below 1e-05 s⁻¹. In addition, in data set [5], the “self-cleavage kobs at 160 uM GlcN6P” value is below 1e-05 s⁻¹.

As for A33U C50U C68U, the turnover number (kcat) in data set [1] worked out at 2.95e-05 ± 1.3e-05 s⁻¹. Moreover, the “self-cleavage kobs at 640 uM GlcN6P” value in data set [7] is below 1e-05 s⁻¹.

Take A15U G38A C67A C68U: in data set [1], the kcat stood at 2.38e-05 ± 7.1e-06 s⁻¹.

In the case of A14G A52U, the kcat in data set [1] stood at 0.000706 ± 1.3e-05 s⁻¹. In addition, in data set [6], the KM was 3890 ± 120 µM. Further, the “self-cleavage kobs at 640 uM GlcN6P” value in data set [7] amounted to 9.98e-05 ± 1.6e-05 s⁻¹. Further, the “self-cleavage kobs at 2500 uM GlcN6P” value in data set [2] came out at 0.000274 ± 5.2e-05 s⁻¹. In addition, in data set [3], the “self-cleavage kobs at 10000 uM GlcN6P” value is 0.000509 ± 6.5e-05 s⁻¹.

With U46G C67U, the kcat in data set [1] was found to be 0.00338 ± 0.0012 s⁻¹. Besides, the KM in data set [6] worked out at 1200 ± 590 µM. Moreover, in data set [4], the “self-cleavage kobs at 40 uM GlcN6P” value stood at 0.000125 ± 1.7e-05 s⁻¹. Further, the “self-cleavage kobs at 160 uM GlcN6P” value in data set [5] turned out to be 0.000317 ± 5.3e-05 s⁻¹. For the same variant, the “self-cleavage kobs at 640 uM GlcN6P” value in data set [7] came out at 0.00143 ± 0.00015 s⁻¹. In addition, in data set [2], the “self-cleavage kobs at 2500 uM GlcN6P” value is 0.00176 ± 0.00028 s⁻¹. In addition, the “self-cleavage kobs at 10000 uM GlcN6P” value in data set [3] came to 0.00457 ± 0.00079 s⁻¹.

Regarding G13U A53G, in data set [1], the kcat came to 0.0022 ± 0.00047 s⁻¹. The KM in data set [6] came to 4460 ± 1300 µM. Moreover, the “self-cleavage kobs at 40 uM GlcN6P” value in data set [4] turned out to be 2.14e-05 ± 9.7e-06 s⁻¹. Further, the “self-cleavage kobs at 160 uM GlcN6P” value in data set [5] was determined as 8.17e-05 ± 1e-05 s⁻¹. Besides, the “self-cleavage kobs at 640 uM GlcN6P” value in data set [7] was 0.00029 ± 3.4e-05 s⁻¹. For the same variant, the “self-cleavage kobs at 2500 uM GlcN6P” value in data set [2] stood at 0.000631 ± 9.5e-05 s⁻¹. In data set [3], the “self-cleavage kobs at 10000 uM GlcN6P” value turned out to be 0.00168 ± 0.0002 s⁻¹.

On to A14C A52U, for which the kcat in data set [1] is 8.73e-05 ± 5e-06 s⁻¹. Moreover, the KM in data set [6] is 1920 ± 430 µM. Moreover, the “self-cleavage kobs at 2500 uM GlcN6P” value in data set [2] is 5.13e-05 ± 1.4e-05 s⁻¹. The “self-cleavage kobs at 10000 uM GlcN6P” value in data set [3] came out at 7.28e-05 ± 1e-05 s⁻¹.

As for G29C G38A, the kcat in data set [1] was below 1e-05 s⁻¹. For the same variant, the “self-cleavage kobs at 40 uM GlcN6P” value in data set [4] was below 1e-05 s⁻¹. The “self-cleavage kobs at 10000 uM GlcN6P” value in data set [3] is below 1e-05 s⁻¹.

Turning to G51U C61G, the kcat in data set [1] was below 1e-05 s⁻¹.

For G32U U69C, the kcat in data set [1] worked out at 0.00053 ± 3.6e-05 s⁻¹. Also, the KM in data set [6] was determined as 3470 ± 470 µM. Further, the “self-cleavage kobs at 640 uM GlcN6P” value in data set [7] came to 7.6e-05 ± 2.3e-05 s⁻¹. In data set [2], the “self-cleavage kobs at 2500 uM GlcN6P” value amounted to 0.000232 ± 4.8e-05 s⁻¹. The “self-cleavage kobs at 10000 uM GlcN6P” value in data set [3] was found to be 0.000391 ± 5.4e-05 s⁻¹.

Take U30A C58A: in data set [1], the kcat stood at 0.000164 ± 5e-05 s⁻¹. For the same variant, the “self-cleavage kobs at 2500 uM GlcN6P” value in data set [2] turned out to be 9.07e-05 ± 2.9e-05 s⁻¹. For the same variant, in data set [3], the “self-cleavage kobs at 10000 uM GlcN6P” value was 0.000114 ± 2.4e-05 s⁻¹.

In the case of U47G A53C, the kcat in data set [1] was 0.00406 ± 0.001 s⁻¹. The KM in data set [6] amounted to 2510 ± 860 µM. Also, in data set [4], the “self-cleavage kobs at 40 uM GlcN6P” value amounted to 0.000103 ± 3.4e-05 s⁻¹. The “self-cleavage kobs at 160 uM GlcN6P” value in data set [5] turned out to be 0.000223 ± 3.9e-05 s⁻¹. In data set [7], the “self-cleavage kobs at 640 uM GlcN6P” value came to 0.000873 ± 0.00013 s⁻¹. Also, the “self-cleavage kobs at 2500 uM GlcN6P” value in data set [2] worked out at 0.00196 ± 0.00025 s⁻¹. The “self-cleavage kobs at 10000 uM GlcN6P” value in data set [3] was 0.00439 ± 0.0019 s⁻¹.

These data come from the supplement of paper PMC7125110.
